These results are taken from the nanobody polyreactivity screen of Harvey et al. (2022).

A short description of this series: yeast display, Sf9 membrane polyspecificity reagent, FACS + sequencing; frameworks hold sequencing errors. The essentials: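 In a synthetic yeast display library (Saccharomyces cerevisiae BJ5465), nanobody expression was induced with galactose for 36–48 hours. FACS gates were set low and high (top ~1%) using anti-HA fluorescence for expression and streptavidin fluorescence for binding of the Sf9 membrane reagent. Each polyreactivity label is drawn from the gate of origin.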
Consider “QVQLVESGGGLVQAGGSLRLSCAASGSNFQNYAMGLYIQAPGKERELVAAISSSGTGTSYADSVKGRFTISRDNAKNTVYLQMNSLKPEDTAVYYCAADYLDYADSAYYYWGQCTQVTVSS”, for which the “polyreactivity (PSR sort gate)” value is recorded as “low polyreactivity”. Consider “QVQLVESGGGLVQAGGSLRLSCAASGSNFQYVYAMGWYRQAPGKERELVAAINGGSGSTYYADSVKGSFTISRDNAKNTVYLQMNSLKPEDTAVYYCNRDYEYPTYPHDYWGQGTQVTVSS”, for which the “polyreactivity (PSR sort gate)” value is “low polyreactivity”. In the case of “QVQLVESGGGLVQAGGSLRLSCAASGSNFRGYTMGWYRQAPGKERELVAAISLSGGSTYYADSVKGRFTISRDNAKNTVYLQMNSLKPEDTAVYYCAASLPWYDEFDYWGQGTQVTVSS”, the “polyreactivity (PSR sort gate)” value is reported as “low polyreactivity”. For the sequence “QVQLVESGGGLVQAGGSLRLSCAASGSNFRYNAMGWYRQAPGKERALVAAISGRGTSTYYADSVKGRFTISRDNAKNTVYLQMNSLKPEDTAVYYCAAVYFRTFLVEYYYWGQGTQVTVSS”, the “polyreactivity (PSR sort gate)” value is listed as “high polyreactivity”.

As for “QVQLVESGGGLVQAGGSLRLSCAASGSNFRYYAMGWDRQAPGKERELVAAISYSGGTTYYADSVKGRFTISRDNAKNTVYLQMNSLKPEDTAVYYCAVPLIGVDGYAYDYWGQGTQVTVSS”, the “polyreactivity (PSR sort gate)” value is “low polyreactivity”.

For the sequence “QVQLVESGGGLVQAGGSLRLSCAASGSNFSPNAMGWYRQAPGKERELVAAIDTRDGTTYYADSVKGRFTISRDNAKNTVYLQMNSLKPEDTAVYYCAAGGPVRYGIATPTGAKRFGYWGQGTQVTVSS”, the “polyreactivity (PSR sort gate)” value is on record as “low polyreactivity”. Take “QVQLVESGGGLVQAGGSLRLSCAASGSNFTFYAMGWYRQAPGKERELVAAISKGGDRTYYADSVKGRFTISRDNAKNTVYLQMNSLKPEDTAVYYCARLVRPGRFGDGDYWGQGTQVTVSS”: the “polyreactivity (PSR sort gate)” value was “low polyreactivity”. Consider “QVQLVESGGGLVQAGGSLRLSCAASGSNFWRNVMGWYRQAPGKERELVAAISSGGSTYYADSVKGRFTISRDNAKNTVYLQMNSLKPEDTEVYYCAAPRYDYWGQGTQVTVSS”, for which the “polyreactivity (PSR sort gate)” value is given as “high polyreactivity”. Then “QVQLVESGGGLVQAGGSLRLSCAASGSNFWSNAMRWYRQAPGKERELVATIDDDVGSTYYADSVKGRFTISRDNAKNTVYFQMNSLKPEDTAVYYCAADTSGADAYTKVRDGYDYWGQGTQVSVSS”, with “low polyreactivity”; and “QVQLVESGGGLVQAGGSLRLSCAASGSNFYDYAMGWYRQAPGKERELVAAISSGGGTYYADSVKGRFTISRDNAKNTVYLQMNSLKPEDTAVYYCNADTYEWFSDFSEDSYDYWGQGTQVTVSS”, with “low polyreactivity”.

As for “QVQLVESGGGLVQAGGSLRLSCAASGSNFYPYTMGWYRQAPGKERELVAAISGGGRTYYADSVKGRFTISRDNAKNTVFLQMNSLNPEDTAVYYCAARYVYRWLVGKYEYWGQGTQVTLSS”, the “polyreactivity (PSR sort gate)” value is “high polyreactivity”. Consider “QVQLVESGGGLVQAGGSLRLSCAASGSNFYQYAMGWYRPAPRKERELVAAISVRAGITYYADSVTGRFTISRDNAKYTVYLQMNSLKPEDTAVYYCAKDHWTTSYDEGDYWGQGTQVTVSS”, for which the “polyreactivity (PSR sort gate)” value was “low polyreactivity”. Regarding “QVQLVESGGGLVQAGGSLRLSCAASGSNFYSYAMGWYRQAPGKESELVAAITKSSGSTYYAASVKGRFTISRDYAKNTVYLQMNSLKPEDTAVYYCAATRYRPVRLYYWGQGTQVTVSS”, the “polyreactivity (PSR sort gate)” value is “high polyreactivity”. For the sequence “QVQLVESGGGLVQAGGSLRLSCAASGSNFYVYAMGCYRQAPGKERELVAAINYDSGSTYYADSVKGRFTISRDTAKNTVYLQMNSLIPEDTAVYYCGTDGVNPFYAYDYWGQGTQVTVSS”, the “polyreactivity (PSR sort gate)” value was “low polyreactivity”.

With “QVQLVESGGGLVQAGGSLRLSCAASGSNFYVYAMLWYRQAPGKERELVADITTRDGDTYYADSVKGRFTISRDNAKNTVYLQMNSLKPEDTAVYYCAADLNAYPLRAYDYWGQGTQVTVSS”, the “polyreactivity (PSR sort gate)” value is “low polyreactivity”. “QVQLVESGGGLVQAGGSLRLSCAASGSNFYYKAMGWYRQAPGKERELVAAITSGDSTNYADSVKGRFTISRDNAKNTVYLQMNSLKPEDTAVYYCAADYLAALTYYRTYDYWGQGTQVTVSS”: the “polyreactivity (PSR sort gate)” value is “low polyreactivity”.

Turning to “QVQLVESGGGLVQAGGSLRLSCAASGSNIATYAMGWYRQAPWKETELVAAISSTGRTYYADSVKGRFTISRDNAKNTVYLQMTRLKPVDTAVYYCNTVRYRSRYGMDYWGQGTQVTVSS”, the “polyreactivity (PSR sort gate)” value is “high polyreactivity”. For “QVQLVESGGGLVQAGGSLRLSCAASGSNIERNAMGWYIQAPGKERELVANITWSGVSTYYADSVKGRFTISRDNAKNTVYLQMNSLKPEDTAVYYCNADYSYRHWYDPGQYGQAMGYWGQGTQVTVSS”, the “polyreactivity (PSR sort gate)” value is “low polyreactivity”.

With “QVQLVESGGGLVQAGGSLRLSCAASGSNIFQYDMGWYRQAPGKERELVAAITISGGSTYYADSVKGRFTISRDNAKNTVYLQLNILKPEDTAVYYCNADYEWYLGGYDYWGQGTQVTVSS”, the “polyreactivity (PSR sort gate)” value is “high polyreactivity”. With “QVQLVESGGGLVQAGGSLRLSCAASGSNLPYYAMGWYRQAPVKERELVAAISYSGGSTYYADSVKGRFTISRDNAKNPVFLQMYSLKPEVTAVYDCNAVVRSPAHGFWGQCTQVTVSS”, the “polyreactivity (PSR sort gate)” value is recorded as “high polyreactivity”.

Regarding “QVQLVESGGGLVQAGGSLRLSCAASGSNLVQNAMGWYRQAPGKERELVAAINWSGASTYYADSVKGRFTISRDNAKNTVYLQMNSLKPEDTAVYYCATVTLFFTDYYSWADVYTEYDYWGQGTQVTVSS”, the “polyreactivity (PSR sort gate)” value is on record as “low polyreactivity”. In the case of “QVQLVESGGGLVQAGGSLRLSCAASGSNMGDNGMGWYRKAPGKERELVAAITNGGSTTYADSVKGRFTISRDNAKNTVYLQMNSLKPEDTAVYYCAADQQDRDQYSDWTEYDYWGQGTQVTVSS”, the “polyreactivity (PSR sort gate)” value is “low polyreactivity”. “QVQLVESGGGLVQAGGSLRLSCAASGSNYRNAMGWYRQAPGKERELVAAISSSGGRTYYADSVKGRFTISRDNAKNTVYLKMNSLKPEDTAVYYCAKVGPYWSRGKYWGQGTQVTVSS”: the “polyreactivity (PSR sort gate)” value was “high polyreactivity”. Then “QVQLVESGGGLVQAGGSLRLSCAASGSPFFPYAMGGYRQAPGKERELVAGISSDGGTSYADSVKGRFTISRDNAKNTVYLQMNSLKPEDTAVYYCAKETIGQDPVSGAWARHEYDYWGQGTQVTVSS”, with “low polyreactivity”; and “QVQLVESGGGLVQAGGSLRLSCAASGSPFKRYAMGWYRQAPGKERELVASITRRGGSTYYADSVKGRFTISRDNAKNTVYLKMNSLKPEDSAVYYCAALQGRSSARQDSYGYWGQGTQVTVSS”, with “high polyreactivity”; and “QVQLVESGGGLVQAGGSLRLSCAASGSPFYNYAMGWYRQAPGKERELVAAIRNGGGTNYADSVKGRFTISRDNAKNTVYLQMNSLKPEDTAVYDCNKAYGVSGTGVDYWGQGTQVTVSS”, with “low polyreactivity”.

With “QVQLVESGGGLVQAGGSLRLSCAASGSSFAENAMGWSRQAPGKERELVATIRSGGSTYADSVKGRFTISRDNAKKTVNLQMNILKPEDTAVYYCATDRYPHSATPGDYWGQGTQVTVSS”, the “polyreactivity (PSR sort gate)” value is given as “low polyreactivity”. On to “QVQLVESGGGLVQAGGSLRLSCAASGSSFGSNAMGWSRPAPGKERELVAAITGGDVSTYYADSVKGRFTISRDNAKNTVYLQMNSLKPEDTAVYYCNAEYARPAMDYWGQGTQVTVSS”, for which the “polyreactivity (PSR sort gate)” value is “low polyreactivity”. As for “QVQLVESGGGLVQAGGSLRLSCAASGSSFGYYAMGWYRPAPGKERELVAAITRRGVNTYYADSVKGRFTISRDNAKNTVYLQMNSLKPEDTAVYYCAATWWQYAQGLHRYDYWGQGTQVTVSS”, the “polyreactivity (PSR sort gate)” value is on record as “high polyreactivity”. As to “QVQLVESGGGLVQAGGSLRLSCAASGSSFPENAMGWYRQAPGKERQLVAGISRSDAGTHYADSVKGRFTISRDNAKNTVYVQMNSLKPEDTAVYYFDAGGTDEDRLTSWVGLFPAYYYWGQATQVTVSS”, the “polyreactivity (PSR sort gate)” value is given as “low polyreactivity”. Take “QVQLVESGGGLVQAGGSLRLSCAASGSSFSRNAMGWYRQAPGKESELVAAISWSGGRTYYAASVKGRFTISRDNAKNTVYLQMNSLKPEDTAVYYCAKGYSYHWYHVTYYSLGQGTQVTVSS”: the “polyreactivity (PSR sort gate)” value was “high polyreactivity”. “QVQLVESGGGLVQAGGSLRLSCAASGSSFSSYAMGRYRQAPAKERELVASNNIGGSTNYADSVKGRFTISRDNAKITVYLHMNSLKPEDTAVYSCNAVGYNVGGEGDYWGQGTQVTVSS”: the “polyreactivity (PSR sort gate)” value is listed as “high polyreactivity”. Consider “QVQLVESGGGLVQAGGSLRLSCAASGSSFSWNAMGWYSQAPGKERELVAAISKRGTSTYYADSVKGRFTISRDNAKKTVYLQMNSLKPEDTAVYYCAARRYYGVYYAFYYWGQGTQVTVSS”, for which the “polyreactivity (PSR sort gate)” value is listed as “high polyreactivity”. Then “QVQLVESGGGLVQAGGSLRLSCAASGSSFVRNGMGWYRQAPGKERELVASIRGSGSRTYYADSVKGRFTISRDNAKNTVYLQMNSLKPEDTAVYYCAAGYWRYYHYPPASGYWGQGTQVTVSS”, with “high polyreactivity”; and “QVQLVESGGGLVQAGGSLRLSCAASGSSFWSNAMGWYRQAPGKEREFVAAINWSGDNTYYADSVKGRFTISRDNSKNKVYLKLISLKPEDTAVYYCIGVGDYPKYSGGFDYCGQGTQVTVSS”, with “low polyreactivity”. For the sequence “QVQLVESGGGLVQAGGSLRLSCAASGSTCYSNAMGWYRQAPGNERELVAGISGSGGSTYYADSVKGRFTISRDNAKNTVYLHMNSLKPEDTAVYYCNARKTRSYFRFDSWGQGTQVTVSS”, the “polyreactivity (PSR sort gate)” value was “low polyreactivity”.

Consider “QVQLVESGGGLVQAGGSLRLSCAASGSTDSNAMGWNRQAPGKEREMVAPISGTGSRTYYADSVKGRFTISRDNAKNTVYFQLNSLKTEDTAVYYCNKDVYGYSRTGPRGYDYWGQGTQVTVSS”, for which the “polyreactivity (PSR sort gate)” value is given as “high polyreactivity”. For “QVQLVESGGGLVQAGGSLRLSCAASGSTFAANAMGWYRPAPGKERELVAAITSSGGSTYYADSVKGRFTISRDNAKNTVYLQMNSLKPEDTAVYYCNKDIERYVRIYDSWGQGTQVTVSS”, the “polyreactivity (PSR sort gate)” value is listed as “low polyreactivity”. As for “QVQLVESGGGLVQAGGSLRLSCAASGSTFAANAMGWYRQAPGKERELVAAIDSSTGSTYYADSVKGRFTISRDIAKNNVFLQMNRLKPEDTAVYYCNKTSFLVKLDYWGQGTQVTVSS”, the “polyreactivity (PSR sort gate)” value was “low polyreactivity”. As for “QVQLVESGGGLVQAGGSLRLSCAASGSTFAANAMGWYRQAPGKERELVAAITSSGGSTYYADSVKGRFTISRDNAKNTVYLQLNSLKPEVTAVYYCNKDIERYVRIYDSWGQGTQVTVSS”, the “polyreactivity (PSR sort gate)” value is reported as “low polyreactivity”.
